Biological target: CHO derived N' FLAG-mNR6 (murine NR6 with an N-terminal FLAG sequence) (mouse) (UniProt Q9JM58)
Assay: BiaCore biosensor, M2 on the sensorchip; concentrated CHO conditioned medium after M2 affinity column

UniProt Q9JM58, sequence (Q9JM58 other isoform, or with tags, fused parts or gaps limits assumed): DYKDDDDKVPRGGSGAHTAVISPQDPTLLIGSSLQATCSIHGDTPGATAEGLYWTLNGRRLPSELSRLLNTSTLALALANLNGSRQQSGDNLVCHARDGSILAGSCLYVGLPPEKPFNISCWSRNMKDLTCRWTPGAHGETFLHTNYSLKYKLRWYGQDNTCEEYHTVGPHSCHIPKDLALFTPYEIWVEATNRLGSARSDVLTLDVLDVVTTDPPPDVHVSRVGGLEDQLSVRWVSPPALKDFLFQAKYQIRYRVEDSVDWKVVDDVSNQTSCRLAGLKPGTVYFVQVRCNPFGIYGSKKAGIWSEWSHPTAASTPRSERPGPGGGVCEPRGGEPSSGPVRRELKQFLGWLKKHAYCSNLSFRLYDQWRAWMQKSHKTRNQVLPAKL

M2 binding remaining in the unbound fraction after M2 affinity resin: 20%
Substance: anti FLAG peptide M2 antibody (Kodak Eastman, USA)

From patent publication US20020045741A1
